Assay results taken from paper PMC7067851, “Formation of pre-pore complexes of pneumolysin is accompanied by a decrease in short-range order of lipid molecules throughout vesicle bilayers” (Scientific Reports, 2020).
Substitutions are numbered along the chain they refer to. Numbers in names are those of the source.

B1: pneumolysin point mutant D205R (natural protein, Streptococcus pneumoniae, UniProt Q04IN8 1-471, looked up)
chain: MANKAVNDFILAMNYDKKKLLTHQGESIENRFIKEGNQLPDEFVVIERKKRSLSTNTSDISVTATNDSRLYPGALLVVDETLLENNPTLLAVDRAPMTYSIDLPGLASSDSFLQVEDPSNSSVRGAVNDLLAKWHQDYGQVNNVPARMQYEKITAHSMEQLKVKFGSDFEKTGNSLDIDFNSVHSGEKQIQIVNFKQIYYTVSVRAVKNPGDVFQDTVTVEDLKQRGISAERPLVYISSVAYGRQVYLKLETTSKSDEVEAAFEALIKGVKVAPQTEWKQILDNTEVKAVILGGDPSSGARVVTGKVDMVEDLIQEGSRFTADHPGLPISYTTSFLRDNVVATFQNSTDYVETKVTAYRNGDLLLDHSGAYVAQYYITWDELSYDHQGKEVLTPKAWDRNGQDLTAHFTTSIPLKGNVRNLSVKIRECTGLAWEWWRTVYEKTDLPLVRKRTISIWGTTLYPQVEDKVEND
notes: pneumolysin (PLY), Streptococcus pneumoniae, with D205R in domain 1; also called PLY D205R; source: purified
B2: pneumolysin point mutant T304R (natural protein, Streptococcus pneumoniae, UniProt Q04IN8 1-471, looked up)
chain: B1 chain with R205D, T304R
notes: pneumolysin (PLY), Streptococcus pneumoniae, with T304R in domain 3; also called PLY T304R; source: purified

Target: the molecule itself
Experiment: negative-stain transmission electron microscopy; protein incubated with unilamellar liposomes (1:1 POPC/chol), stained with 1% w/v uranyl acetate on a copper grid; membrane-bound oligomeric structures visualised

Protein	binding result
B1	binds
B2	binds
